We go through two molecules from patent US20060292140A1 (published 2006).

The target of assay [1] is T1, human α4β7 integrin (human, UniProt P13612 34-1032; P26010 20-798). Kind of assay: cell-based or functional assay.
Assay [2] deals with T1, human α4β7 integrin. Put plainly: flow cytometry competition on HuT 78 cells; competitor biotinylated LDP-02/3A9/Lot#1 held constant. On the procedure:
(§1) Unless otherwise indicated, all reagents were diluted in 0.15 M PBS/1.0% FCS/0.1% sodium azide. The varying concentrations for both antibodies ranged in half-log increments from 2.0×10⁻⁶M to 5.0×10⁻¹¹M. After removal of the primary antibodies, the cells were then suspended in 100 μl streptavidin phycoerythrin (Dako Corp., Carpinteria, Calif.) diluted 1:200. After washing in 200 μl PBS, cells were resuspended in 0.5 ml of PBS/1% formalin and refrigerated until analyzed. Samples were analyzed on a FACScan (Becton Dickinson Corp., San Jose, Calif.) using a 488 nm laser to excite phycoerythrin. For each sample, a minimum of 10,000 cells was analyzed and MCF calculated. All samples were performed in duplicate. The IC₅₀ was determined as the concentration of unconjugated antibody producing a 50% reduction in the MCF from the biotinylated homologue antibody.
Background: In flow cytometry, cells or beads pass a laser one at a time.

Assay [3] has as its target T1, human α4β7 integrin. Put plainly: flow cytometry titration of biotinylated antibody on HuT 78 cells, half-maximal mean channel fluorescence. As for the experimental part: Unless otherwise indicated, all reagents were diluted in 0.15 M PBS/1.0% FCS/0.1% sodium azide. […] After washing in 200 μl PBS, cells were resuspended in 0.5 ml of PBS/1% formalin and refrigerated until analyzed. Samples were analyzed on a FACScan (Becton Dickinson Corp., San Jose, Calif.) using a 488 nm laser to excite phycoerythrin. […] All samples were performed in duplicate.

The target of assay [4] is T1, human α4β7 integrin. Put plainly: flow cytometry competition on HuT 78 cells; competitor biotinylated murine Act-1 held constant; experiment 1, lot 2. As for the experimental part: as §1
Assay [5] addresses T1, human α4β7 integrin. Put plainly: flow cytometry competition on HuT 78 cells; competitor biotinylated murine Act-1 held constant; experiment 2, lot 2. On the procedure:
as §1

Assay [6] concerns the target T1, human α4β7 integrin. Kind of assay: flow cytometry competition on HuT 78 cells; competitor biotinylated murine Act-1 held constant; experiment 3, lot 2. On the procedure:
as §1

For assay [7], the target named is T1, human α4β7 integrin. Put plainly: flow cytometry competition on HuT 78 cells; competitor biotinylated murine Act-1 held constant; experiment 4, lot 2. As for the experimental part:
as §1

Assay [8] deals with T1, human α4β7 integrin. Kind of assay: flow cytometry competition on HuT 78 cells; competitor biotinylated murine Act-1 held constant; experiment 5, lot 2. As for the experimental part:
as §1

The target in assay [9] is T1, human α4β7 integrin. Kind of assay: flow cytometry competition on HuT 78 cells; competitor biotinylated murine Act-1 held constant; mean of 5 experiments. As for the experimental part:
as §1

For assay [10], the target named is T1, human α4β7 integrin. Kind of assay: flow cytometry on HuT 78 cells, transient COS-7 expression.

B1: murine Act-1 monoclonal antibody (antibody, mouse IgG1, V domains shown)
VH: QVQLQQPGAELVKPGTSVKLSCKGYGYTFTSYWMHWVKQRPGQGLEWIGEIDPSESNTNYNQKFKGKATLTVDISSSTAYMQLSSLTSEDSAVYYCARGGYDGWDYAIDYWGQGTSVTVSS
VL: DVVVTQTPLSLPVSFGDQVSISCRSSQSLAKSYGNTYLSWYLHKPGQSPQLLIYGISNRFSGVPDRFSGSGSGTDFTLKISTIKPEDLGMYYCLQGTHQPYTFGGGTKLEIK
notes: Mouse IgG1/kappa from the Act-1 hybridoma; also called mouse Act-1; ACT-1 (murine)
A word on the IC50: it is the concentration needed to halve the response being measured. Read a high IC50 as weaker potency. One may read the EC50 as the concentration that produces a half-maximal response. With B1, in the assay with human α4β7 integrin [1], the “IC50: concentration which inhibited by 50% the adhesion of RPMI 8866 cells to human MAdCAM-1-Ig chimera” value was 0.0018 µg/mL. Moreover, the IC50 came to 6.3 nM with human α4β7 integrin [2]; 7.57 nM with human α4β7 integrin [4]; 10.9 nM with human α4β7 integrin [5]; 6.02 nM in the assay with human α4β7 integrin [6]; 4.91 nM with human α4β7 integrin [7]; 10.2 nM with human α4β7 integrin [8]. Besides, in the assay with human α4β7 integrin [9], the IC50 was found to be 7.94 nM. Moreover, it took 0.1 µg/mL to reach a half-maximal effect with human α4β7 integrin [3] (EC50).

B2: derivative of LDP-02 (Fc-mutated) having a mutation in the light chain (MV4) plus a double mutation in the heavy chain (R38K, A40R) (antibody, human IgG1, V domains shown)
VH: QVQLVQSGAEVKKPGASVKVSCKGSGYTFTSYWMHWVKQRPGQRLEWIGEIDPSESNTNYNQKFKGRVTLTVDISASTAYMELSSLRSEDTAVYYCARGGYDGWDYAIDYWGQGTLVTVSS
VL: DVVVTQSPLSLPVTPGEPASISCRSSQSLAKSYGNTYLSWYLQKPGQSPQLLIYGISNRFSGVPDRFSGSGSGTDFTLKISRVEAEDVGVYYCLQGTHQPYTFGQGTKVEIK
notes: transient COS-7 expression; also called M4V / R38K, A40R derivative
Regarding B2, in the assay with human α4β7 integrin [10], the binding result is on record as “binds”.
